The target in series [1] is T1, AhrC (Streptococcus mutans UA159) (UniProt Q8DVB1).
T1 sequence: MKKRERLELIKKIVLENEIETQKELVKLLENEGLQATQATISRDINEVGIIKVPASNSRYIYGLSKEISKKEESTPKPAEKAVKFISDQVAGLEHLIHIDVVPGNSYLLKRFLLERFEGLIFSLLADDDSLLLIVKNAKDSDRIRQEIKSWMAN
In words: EMSA. The note with it: EMSA: 20 mM Tris-HCl, 100 mM NaCl, 5% glycerol, 30 min on ice, pH not stated; native PAGE in 0.5x TBE at 4 C. Footprinting: DNase I 0.1 Kunitz units/uL, 4 min ….

The target in series [2] is T2, AhrC (Streptococcus mutans UA159, UniProt Q8DVB1 1-154).
T2 sequence: T1 sequence
The experiment in a line: EMSA. The note with it: protein: recombinant; tags: 6xHis (pET28a, NotI/XhoI); chain copies: 6; label: FAM.

Series [3] deals with T2, AhrC. The experiment in a line: EMSA; EMSA: 20 mM Tris-HCl, 100 mM NaCl, 5% glycerol, 30 min on ice, pH not stated; native PAGE in 0.5x TBE at 4 C. Footprinting: DNase I 0.1 Kunitz units/uL, 4 min at 37 C. The note with it: protein: recombinant; tags: 6xHis (pET28a, NotI/XhoI); chain copies: 6; label: FAM.

Regarding “AATAATTTTGTTATCATGAGTTAAAGTATCTAGTTATAAACTAGGTACTTTTTACATTTTATTCATTTCTAGCTTGACTTATGAATAAATATACGATAAAATAAACAACATCTTTATAAAGGAAGTGAATAAGT (double strand) [argC promoter (argCp)]”, the binding entry in series [1] was “binds”.

B1: argC p1mut (dsDNA)
DNA 1: CATTTCTAGCTTGCCCCCCGACCCCCCATACGATAAA
DNA 2: TTTATCGTATGGGGGGTCGGGGGGCAAGCTAGAAATG
B1: in series [2], the binding result is listed as “no binding”.

B2: argC p1 (dsDNA)
DNA 1: CATTTCTAGCTTGACTTATGAATAAATATACGATAAA
DNA 2: TTTATCGTATATTTATTCATAAGTCAAGCTAGAAATG
In the case of B2, the binding result in series [3] is on record as “binds”.

The values are drawn from PMC9430756, “AhrC Negatively Regulates Streptococcus mutans Arginine Biosynthesis”.
